Reference: PMC6962393 (2020)

Legend:
[1] = target: FN-67B89, human fibronectin EDB flanked by its surrounding type III domains (human); assay: ELISA
[2] = target: FN-B, recombinant human fibronectin extra domain B (EDB) as a single domain (human); assay: ELISA
FN-B, recombinant human fibronectin extra domain B (EDB) as a single domain (human), sequence (chain, as listed by the source): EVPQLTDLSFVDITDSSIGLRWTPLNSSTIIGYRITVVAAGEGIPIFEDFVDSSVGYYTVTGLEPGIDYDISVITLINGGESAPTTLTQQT

FN-67B89, human fibronectin EDB flanked by its surrounding type III domains (human), sequence (chain, as listed by the source): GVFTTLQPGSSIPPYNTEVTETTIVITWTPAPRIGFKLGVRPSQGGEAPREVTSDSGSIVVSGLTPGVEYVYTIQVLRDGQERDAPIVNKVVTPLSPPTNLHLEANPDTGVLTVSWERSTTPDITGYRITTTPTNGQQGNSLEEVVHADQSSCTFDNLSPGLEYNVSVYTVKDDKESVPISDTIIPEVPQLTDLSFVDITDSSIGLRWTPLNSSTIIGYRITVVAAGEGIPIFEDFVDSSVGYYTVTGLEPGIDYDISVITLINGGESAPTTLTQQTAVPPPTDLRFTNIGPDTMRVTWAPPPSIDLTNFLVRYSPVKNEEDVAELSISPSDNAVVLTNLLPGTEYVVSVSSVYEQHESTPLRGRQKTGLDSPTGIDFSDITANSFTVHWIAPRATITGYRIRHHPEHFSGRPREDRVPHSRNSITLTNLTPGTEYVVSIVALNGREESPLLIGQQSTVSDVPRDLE

Binder	Kd [1] [nM]	Kd [2] [nM]
PMCTQRKNRIRLCRRDSDCTGACICRGNGYCG (designed binder) [Trx-MC-FN-010, Thioredoxin-A fusion of cystine-knot miniprotein MC-FN-010]	10.5	6.07
SVCKNVSIMRIRLCRRDSDCPGACICRGNGYCG (designed binder) [Trx-MC-FN-050, Thioredoxin-A fusion of cystine-knot miniprotein MC-FN-050]	67.8	40.5
SVCAHYNTIRVRLCRRDSDCPGACICRGNGYCG (designed binder) [Trx-MC-FN-040, Thioredoxin-A fusion of cystine-knot miniprotein MC-FN-040]	29.4	24
SVCKQANFVRIRLCRRDSDCPGACICRGNGYCG (designed binder) [Trx-MC-FN-060, Thioredoxin-A fusion of cystine-knot miniprotein MC-FN-060]	20.4	10.3
WKCQPTNGYRIRCRRDSDCPGDCICRGNGYCG (designed binder) [Trx-MC-FN-030, Thioredoxin-A fusion of cystine-knot miniprotein MC-FN-030]	232	234
